Assay results published in patent US20230106715A1 (BIOSION, published 2023).

How the values were obtained:
[1] = target: T1, human Siglec15-Fc protein (human); assay: competitive ELISA: coated human Siglec15-Fc, blocked ligand biotin-labeled human LRRC4C-Fc
T1 construct: In house made; also called recombinant human Siglec15 protein with human IgG1 Fc at the C-terminus
Procedure: Serially diluted anti-Siglec15 antibodies or the controls (starting at 66.67 nM with a 5-fold serial dilution) in PBST with 2.5% w/v non-fatty milk were added to the Siglec15-Fc bound plates, 100 μl per well, and incubated with the human Siglec15-Fc protein at 37° C. for 40 minutes. Plates were washed 4 times again using wash buffer, then added and incubated for 40 minutes at 37° C. with 100 μl/well 290 ng/ml biotin-labeled human LRRC4C-Fc protein (prepared in-house with SEQ ID NO: 23). Plates were washed again using wash buffer. Thereafter, the plates were added with 100 μl/well streptavidin conjugated HRP (1:5000 dilution in PBST buffer, Jackson Immunoresearch, Cat #016-030-084) and incubated for 40 minutes at 37° C. Plates were washed again using wash buffer. Finally, TMB was added and the reaction was stopped using 1M H₂SO₄, and the absorbance of each well was read on a microplate reader using dual wavelength mode with 450 nm for TMB and 630 nm as the reference wavelength, then the OD (450-630) values were plotted against antibody concentration. Data was analyzed using Graphpad Prism software and IC₅₀ values were reported.
(§1) The mouse anti-Siglec15 antibodies of the disclosure were also tested in ligand blocking ELISA and benchmark blocking ELISA following the protocols described above.

[2] = target: T1, human Siglec15-Fc protein; assay: competitive ELISA: biotin-labeled human Siglec15-Fc in solution, competitor coated benchmark
Procedure: The abilities of the anti-Siglec15 antibodies of the disclosure to block benchmark-human Siglec15 binding were measured in a competitive ELISA assay. Briefly, the benchmark was coated on 96-well micro plates at 2 μg/mL in PBS, 100 μl per well, and incubated for 2 hours at 37° C. Then plates were washed once with wash buffer, and blocked with 5% w/v non-fatty milk in PBST overnight at 4° C. The next day, the anti-Siglec15 antibodies of the disclosure or controls were diluted with biotin labeled human Siglec15-Fc protein (prepared in-house with SEQ ID NO: 19, 37 ng/ml in PBST with 2.5% w/v non-fatty milk), starting at 80 nM with a 4-fold serial dilution, and incubated at room temperature for 40 minutes. After plate washing 4 times, the antibody/Siglec15-Fc mixtures were added to benchmark coated plates, 100 μl per well. After incubation at 37° C. for 40 minutes, plates were washed 4 times again using wash buffer. Then the plates were added and incubated with 100 μl/well streptavidin conjugated HRP for 40 minutes at 37° C. Plates were washed again using wash buffer. Finally, TMB was added and the reaction was stopped using 1M H₂SO₄, and the absorbance of each well was read on a microplate reader using dual wavelength mode with 450 nm for TMB and 630 nm as the reference wavelength, then the OD (450-630) values were plotted against antibody concentration. Data was analyzed using Graphpad Prism software and IC₅₀ values were reported.
as §1

[3] = target: T2, cynomolgus monkey Siglec15-his protein (cynomolgus monkey); assay: SPR Biacore T200, antibody captured by anti-human IgG, antigen as analyte, 1:1 fit
T2 construct: In house made; also called Cynomolgus Siglec15-his; cynomolgus Siglec15
T2 chain: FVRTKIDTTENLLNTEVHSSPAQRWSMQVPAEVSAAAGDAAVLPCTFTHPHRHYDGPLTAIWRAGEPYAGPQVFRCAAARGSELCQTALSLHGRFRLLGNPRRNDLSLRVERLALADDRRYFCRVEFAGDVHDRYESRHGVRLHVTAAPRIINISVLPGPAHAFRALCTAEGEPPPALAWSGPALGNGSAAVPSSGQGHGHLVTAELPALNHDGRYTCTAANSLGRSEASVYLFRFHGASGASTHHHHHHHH
Procedure: Briefly, goat anti-human IgG (GE healthcare, Cat #BR100839, Human Antibody Capture Kit) was covalently linked to a CM5 chip (carboxy methyl dextran coated chip, GE healthcare, Cat #BR-1005-30) via primary amines, using a standard amine coupling kit provided by Biacore (GE healthcare, Pittsburgh, Pa., USA). Un-reacted moieties on the biosensor surface were blocked with ethanolamine. Then, purified anti-Siglec15 antibodies of the disclosure at the concentration of 13.3 nM and an anti-Siglec15 benchmark (ch5G12, also referred to as BM, see U.S. Patent Publication No. 20190202912A1, amino acid sequences of the heavy chain and light chain set forth in SEQ ID NOs: 24 and 25, respectively) at 13.3 nM, were respectively flowed onto the chip at a flow rate of 10 μL/min. Then, serially diluted recombinant human Siglec15-his protein (in house made, amino acid sequence set forth in SEQ ID NO: 20) or cynomolgus monkey Siglec15-his protein (in house made, amino acid sequence set forth in SEQ ID NO: 21), 2-fold serial dilution in HBS-EP⁺ buffer starting at 80 nM, were respectively flown onto the chip at a flow rate of 30 μL/min. The antigen-antibody association kinetics was followed for 2 minutes and the dissociation kinetics was followed for 10 minutes. The association and dissociation curves were fit to a 1:1 Langmuir binding model using BIAcore evaluation software.

T1 sequence (chain, as listed by the source limits assumed): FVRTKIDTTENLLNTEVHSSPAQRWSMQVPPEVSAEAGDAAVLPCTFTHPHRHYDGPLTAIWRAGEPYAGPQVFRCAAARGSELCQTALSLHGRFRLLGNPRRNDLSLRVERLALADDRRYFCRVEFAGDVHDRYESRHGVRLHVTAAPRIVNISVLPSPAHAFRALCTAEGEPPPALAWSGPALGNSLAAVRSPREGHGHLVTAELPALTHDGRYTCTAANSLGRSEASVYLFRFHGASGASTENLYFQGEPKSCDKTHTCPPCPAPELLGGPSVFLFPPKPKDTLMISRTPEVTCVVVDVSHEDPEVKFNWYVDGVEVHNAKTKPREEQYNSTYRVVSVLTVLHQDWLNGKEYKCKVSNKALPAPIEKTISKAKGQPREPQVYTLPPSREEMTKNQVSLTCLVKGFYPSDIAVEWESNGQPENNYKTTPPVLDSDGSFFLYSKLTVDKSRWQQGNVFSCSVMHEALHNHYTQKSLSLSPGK

B1: B2D7H7A3C1 (antibody, V domains shown)
VH: QVQLQQSGAELVRPGTSVQMSCKAAGYTFTNYWIGWVKQRPGHGLEWVGDIHPGINYTNNNEKFRGKATLTADTSSNTAYMQLRGLTSDDSAIYYCARVDYDYDGSYIMDYWGQGTSVTVSS
VL: QIVLSQSPALLSASPGEKVTMTCRASSSVSYMYWYQQKPGSSPKPWIYATSNLTSGVPARFSGSGSGTSYSLTISRVEAEDAATYFCQQWNSKPWTFGGGSKLEIR
notes: Mouse monoclonal antibody from hybridoma; also called mouse B2D7H7A3C1
- IC50 [1]: 0.868 nM
- IC50 [2]: 0.081 nM

B2: B2G12H3E8 (antibody, V domains shown)
VH: QVQLKQSGAELVRPGTSVQMSCKAVGYTFTNYWIGWVKQRPGHGLEWVGDIHPGINYTNNNEKFRGKATLTADTSSSTAYMQLRGLTSDDSAIYYCARVDYDYDGSYIMDYWGQGTSVTVSS
VL: QIVLSQSPALLSASPGEKVTMTCRASSSVSYMYWYQQKPGSSPKPWIYATSNLTSGVPARFSGSGSGTSYSLTISRVEAEDAATYFCQQWNSKPWTFGGGSKLEIR
notes: Mouse monoclonal antibody from hybridoma; also called mouse B2G12H3E8
- IC50 [1]: 0.954 nM
- IC50 [2]: 0.063 nM

B3: B2H2H1H7 (antibody, V domains shown)
VH: QVQLQQSGAELVRPGTSVQMSCKAAGYTFTNYWIGWVKQRPGHGLEWVGDIHPGINYTNNNEKFRGKATLTADTSSSTAYMQLRGLTSDDSAIYYCARVDYDYDGSYIMDYWGQGTSVTVSS
VL: QIILSQSPALLSASPGEKVTMTCRASSSVSYMYWYQQKPGSSPKPWIYATSNLTSGVPARFSGSGSGTSYSLTISRVEAEDAATYFCQQWNSKPWTFGGGSRLEIR
notes: Mouse monoclonal antibody from hybridoma; also called mouse B2H2H1H7; B2H2H1A7
- IC50 [1]: 1.04 nM
- IC50 [2]: 0.0642 nM

B4: A2A5C7E8 (antibody, V domains shown)
VH: EVQLVQSGAEVKKPGESLRISCKGSGYSFTTYWISWVRQMPGKGLEWMGLIDPSDSYTNYSPSFQGHVTISTDKSISTAYLQWSSLKASDTAMYYCARGGYYGSEEDYWGQGTLVTVSS
VL: EIVLTQSPGTLSLSPGERATLSCRASQSVSSSRLAWFQQKSGQAPRLLIFDASSRATGIPDRFSGSGSGTDFTLTISRLEPEDFAVYYCQQYGSSPRTFGQGTKVEFK
notes: Fully human antibody from transgenic mouse hybridoma; also called A2A5C7E8-1
- Kd [3]: 0.0704 nM
- koff [3]: 7.96e-05 s⁻¹
- kon [3]: 1.13e+06 M⁻¹ s⁻¹

B5: A2A5C7E8-2 (antibody, human IgG1, kappa, V domains shown)
VH: EVQLVQSGAEVKKPGESLRISCKGSGYSFTTYWISWVRQMPGKGLEWMGLIDPSESYTNYSPSFQGHVTISTDKSISTAYLQWSSLKASDTAMYYCARGGYYGSEEDYWGQGTLVTVSS
VL: EIVLTQSPGTLSLSPGERATLSCRASQSVSSSRLAWFQQKSGQAPRLLIFDASSRATGIPDRFSGSGSGTDFTLTISRLEPEDFAVYYCQQYGSSPRTFGQGTKVEFKR
notes: Variant of A2A5C7E8 modified in VH CDR2 (X1 = E)
- Kd [3]: 0.147 nM
- koff [3]: 0.000167 s⁻¹
- kon [3]: 1.14e+06 M⁻¹ s⁻¹

B6: A2A5C7E8-3 (antibody, human IgG1, kappa, V domains shown)
VH: EVQLVQSGAEVKKPGESLRISCKGSGYSFTTYWISWVRQMPGKGLEWMGLIDPSDSYTNYSPSFKGHVTISTDKSISTAYLQWSSLKASDTAMYYCARGGYYGSEEDYWGQGTLVTVSS
VL: EIVLTQSPGTLSLSPGERATLSCRASQSVSSSRLAWFQQKSGQAPRLLIFDASSRATGIPDRFSGSGSGTDFTLTISRLEPEDFAVYYCQQYGSSPRTFGQGTKVEFKR
notes: Variant of A2A5C7E8 modified in VH CDR2 (X2 = K)
- Kd [3]: 0.0751 nM
- koff [3]: 5.32e-05 s⁻¹
- kon [3]: 708000 M⁻¹ s⁻¹

B7: anti-Siglec15 benchmark (ch5G12) (antibody, human IgG1, kappa, V domains shown)
VH: QVQLQQPGAELVKPGASVKMSCKASGYTFTSYWITWVIQRPGQGLEWIGDIYCGSDTMHYNEKFKNKATLTVDTSSSTAYMQLSSLTSEDSAVYYCARWWDYGSSYDYFDYWGQGTTLTVSS
VL: DIKMTQSPSSMYASLGERVTITCKASQDINSYLSWFQQKPGKSPKTLIYRANRLVDGVPSRFSGSGSGQDYSLTISSLEYEDMGIYYCLQYDEFPYTFGGGTKLEIKR
notes: ch5G12 (US 20190202912A1); also called BM; Siglec15-ch5G9
- IC50 [1]: 1.57 nM
- Kd [3]: 0.688 nM
- koff [3]: 0.000781 s⁻¹
- kon [3]: 1.13e+06 M⁻¹ s⁻¹
- IC50 [2]: 0.447 nM
